From paper PMC8080847

Experiments:
[1] = biological target: mEos3.2-CD86 (CD86 truncated at R227) (UniProt P42081); assay: single-molecule diffusional mobility shift assay (smDIMSA); homodimer format on living HeLa cells: receptor partially labelled with the Alexa Fluor 647 Fab (20 nM, 15 min) of a monoclonal antibody, tracked before and after 15 min with the same full-length antibody; 37 °C; peak shift averaged from multiple cells
[2] = biological target: EGFR on Cos7 cells (African green monkey (endogenous in Cos7)); assay: single-molecule diffusional mobility shift assay (smDIMSA); living Cos7 cells treated with EGF, no pertuzumab (mock); EGFR bait labelled with Fab-Alexa Fluor 647, tracked before and after the anti-ErbB2 antibody
[3] = biological target: EGFR on Cos7 cells (African green monkey (endogenous in Cos7)); assay: single-molecule diffusional mobility shift assay (smDIMSA); living Cos7 cells treated with EGF and pertuzumab; EGFR bait labelled with Fab-Alexa Fluor 647, tracked before and after the anti-ErbB2 antibody

Question: Which peak shift of the diffusion coefficient [1] does the source give for “mEos3.2-CD86 (CD86 truncated at R227) (from UniProt P42081 24-227) (receptor)” here?
Answer: < 1%

Question: For ErbB2 on Cos7 cells (receptor), which diffusion coefficient shift (EGF-treated cells) [2] is on record?
Answer: 12%

Question: What about the diffusion coefficient shift (EGF-treated cells, with pertuzumab) [3] of the same substance?
Answer: 6%
